Consider two substances from patent US10010626B2, “Molecular constructs with targeting and effector moieties” (Immunwork Inc., priority 2015, dated 2018).

The target of one assay is T1, CD20 (Homo sapiens, UniProt P11836).
T1 sequence (P11836 1-297): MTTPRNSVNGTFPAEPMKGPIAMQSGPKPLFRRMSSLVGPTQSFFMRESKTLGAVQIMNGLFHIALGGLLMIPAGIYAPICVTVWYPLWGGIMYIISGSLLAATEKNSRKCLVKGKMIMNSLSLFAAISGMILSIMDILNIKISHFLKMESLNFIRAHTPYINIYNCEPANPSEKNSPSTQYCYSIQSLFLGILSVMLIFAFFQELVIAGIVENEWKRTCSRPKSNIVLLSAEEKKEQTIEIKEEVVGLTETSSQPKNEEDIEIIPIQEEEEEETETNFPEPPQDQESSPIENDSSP
Briefly: Apoptosis by anti-CD20 Fab in a 4-arm PEG linker. Conditions: PEG arm of about 1,000-1,200 daltons (about 25-30 ethylene glycol units). It is filed as cell-based.

The target in the next assay is human TNF-α (Homo sapiens, UniProt P01375). Briefly: ELISA analysis of purified scFv of adalimumab. Format: binding. Conditions: compared with Expi-293F-produced scFv of adalimumab. The protocol: The expression plasmid was then transformed into Pichia pastoris by electroporation. To screen for high yield clones, ELISA was performed to measure the expression levels of scFv of adalimumab. Out of 480 transformants, five were selected for further protein induction and examination by SDS-PAGE. The clone scFv_1-A2 was selected for subsequent large-scale fermentation.
Sequence of human TNF-α (P01375 77-233 limits assumed): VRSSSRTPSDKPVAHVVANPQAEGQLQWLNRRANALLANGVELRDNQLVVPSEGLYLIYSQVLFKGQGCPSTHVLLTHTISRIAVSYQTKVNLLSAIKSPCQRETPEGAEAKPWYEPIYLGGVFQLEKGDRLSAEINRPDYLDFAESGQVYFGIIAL
The high-yield clone scFv_1-A2 was inoculated in 100 mL of buffered glycerol-complex medium (BMGY, containing 1% yeast extract, 2% peptone, 100 mM K3PO4, 1.34 YNB, 0.4 mg/L biotin and 1% glycerol, pH 6.0) and cultured at 30° C., 200 rpm for 24 hours. On the next day, the culture was changed to a fermentation condition maintaining at 30° C., 30% of dissolved oxygen and pH 6.0. After being fermented for 24 hours, nitrogen source (YE, peptone) and methanol (0.5%, v/v) was added to induce protein expression. The culture supernatant was harvested for protein purification.
(In general: ELISA stands for enzyme-linked immunosorbent assay.)

Take “anti-CD20 (rituximab) Fab in a 4-arm PEG linker: anti-CD20 (rituximab) Fab in a 4-arm PEG linker, PEG arm of about 1,000-1,200 daltons”: the causing apoptosis result with CD20 was “effective in causing apoptosis”.
For “yeast-produced scFv of adalimumab: scFv of adalimumab produced by Pichia pastoris clone scFv_1-A2”, the “binding to human TNF-α (ELISA)” value in the assay with human TNF-α is “bound to human TNF-α equally well as Expi-293F-produced scFv of adalimumab”.
